Results from US20010011078A1 (University of Texas, published 2001).

What was measured:
[1] = tested on: poly(ADP-ribose) polymerase (PARP)
[2] = tested on: T1, DFF45 fusion protein with a six-histidine tag at the NH2-terminus
T1 sequence: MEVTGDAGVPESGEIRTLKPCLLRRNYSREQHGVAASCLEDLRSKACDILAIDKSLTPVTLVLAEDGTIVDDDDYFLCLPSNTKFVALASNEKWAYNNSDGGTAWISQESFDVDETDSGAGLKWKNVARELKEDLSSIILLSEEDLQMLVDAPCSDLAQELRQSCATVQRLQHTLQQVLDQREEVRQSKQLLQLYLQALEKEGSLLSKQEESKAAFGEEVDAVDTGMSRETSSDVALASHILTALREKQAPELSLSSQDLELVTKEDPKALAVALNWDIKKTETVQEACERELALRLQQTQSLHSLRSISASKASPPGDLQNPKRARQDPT

[3] = tested on: T2, DFF40 (40-kDa subunit of DNA fragmentation factor), native human protein
T2 sequence: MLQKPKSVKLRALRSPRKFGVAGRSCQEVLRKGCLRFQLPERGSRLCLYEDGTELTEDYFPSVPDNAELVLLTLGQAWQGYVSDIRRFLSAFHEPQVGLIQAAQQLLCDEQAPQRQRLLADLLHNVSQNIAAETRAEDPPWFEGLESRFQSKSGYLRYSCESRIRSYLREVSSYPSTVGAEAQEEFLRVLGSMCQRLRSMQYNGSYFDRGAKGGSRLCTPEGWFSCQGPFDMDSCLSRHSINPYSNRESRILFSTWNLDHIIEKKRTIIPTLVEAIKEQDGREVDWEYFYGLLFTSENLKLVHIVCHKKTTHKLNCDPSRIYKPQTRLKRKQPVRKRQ

[4] = tested on: T3, DFF45 (45-kDa subunit of DNA fragmentation factor), native human protein
T3 sequence: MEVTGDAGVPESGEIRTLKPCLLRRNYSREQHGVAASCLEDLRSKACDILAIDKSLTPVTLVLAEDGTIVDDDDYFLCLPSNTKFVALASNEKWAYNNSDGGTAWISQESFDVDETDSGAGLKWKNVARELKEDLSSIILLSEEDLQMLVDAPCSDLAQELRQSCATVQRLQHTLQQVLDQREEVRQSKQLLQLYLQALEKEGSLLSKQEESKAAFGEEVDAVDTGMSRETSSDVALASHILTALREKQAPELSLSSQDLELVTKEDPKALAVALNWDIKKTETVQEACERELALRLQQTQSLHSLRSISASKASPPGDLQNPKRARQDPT

[5] = target: recombinant DFF40 tagged with six histidine at its C-terminus (human) (UniProt O76075); assay: cell-based or functional assay
[6] = target: T4, DFF40 (40-kDa subunit of DNA fragmentation factor), native human protein (human, UniProt O76075 1-338); assay: co-elution from the Mono Q column (last purification step), SDS-PAGE with Coomassie stain
T4 construct: Native protein purified from HeLa S-100 as part of the DFF heterodimer; also called 40-kDa polypeptide
T4 sequence: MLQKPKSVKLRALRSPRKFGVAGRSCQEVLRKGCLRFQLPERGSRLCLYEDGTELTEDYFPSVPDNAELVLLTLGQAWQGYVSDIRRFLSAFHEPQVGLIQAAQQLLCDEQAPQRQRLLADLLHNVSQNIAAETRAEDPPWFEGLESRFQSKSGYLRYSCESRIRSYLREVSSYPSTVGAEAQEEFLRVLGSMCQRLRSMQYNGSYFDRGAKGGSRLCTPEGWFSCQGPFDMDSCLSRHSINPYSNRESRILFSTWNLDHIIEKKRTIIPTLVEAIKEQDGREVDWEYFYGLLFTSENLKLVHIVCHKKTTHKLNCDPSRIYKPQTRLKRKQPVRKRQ
Experimental: Ammonium sulfate (1 M) was added directly to the SP-Sepharose 0.5 M eluate. After rotating at 4° C. for 1 hr, the sample were centrifuged at 15,000 rpm for 30 min in a Sovall IA-600 rotor. The supernate was directly loaded onto a 100 ml phenyl Sepharose column equilibrated with buffer A containing 1 M ammonium sulfate and 0.5 M NaCl. The column was washed with three bed volumes of buffer A containing 1 M ammonium sulfate and 0.5 M NaCl and the bound material was eluted with two bed volumes of buffer A. […] was added to the phenyl Sepharose eluate to 50% saturation. After stirring at 4° C. for 5 hr, the sample was centrifuged at 15,000 rpm for 15 min in a Sovall JA-600 rotor. The pellet was resuspended in buffer A and loaded onto a Superalex-200 16/60 gel filtration column (Pharmacia) equilibrated with buffer A and eluted with the same buffer. Fractions of 4 ml were collected and assayed for DFF activity. The active fractions from the gel filtration column were pooled and loaded onto a MonoS 10/10 column (Pharmacia) equilibrated with buffer A. The column was washed with 50 ml of buffer A and eluted with a 200 ml 0-0.2 M linear NaCl gradient. […]
DFF activity eluted from a Mono Q column, the last step of the purification, at about 250 mM NaCl. […] No other proteins were detected in fraction containing the peak of DFF activity.

caspase-3 (active recombinant)
rate of cleavage in isolated nuclei (immunoblot) [1]: The same conclusion was obtained when the rate of cleavage of PARP was measured
cleavage of the fusion protein (SDS-PAGE) [2]: Incubation of this fusion protein with caspase-3 resulted in its cleavage into three fragments of 30 kDa, 18 kDa and 11 kDa at the early time point
time course of cleavage in isolated nuclei (immunoblot) (lamin B1): the rate of lamin B1 cleavage by caspase-3 remained the same with or without DFF
cleavage of biotinylated DFF (SDS-PAGE, streptavidin-peroxidase chemiluminescence) [3]: the 40-kDa subunit remained intact
cleavage of biotinylated DFF (SDS-PAGE, streptavidin-peroxidase chemiluminescence) [4]: Incubation with caspase-3 resulted in the cleavage of the 45-kDa subunit into fragments of molecular masses of 30 kDa and 11 kDa

histone H1
DNase activity of A-DFF40 on purified plasmid DNA [5]: > 10 fold

B1: DFF45 (45-kDa subunit of DNA fragmentation factor), native human protein (other)
chain: MEVTGDAGVPESGEIRTLKPCLLRRNYSREQHGVAASCLEDLRSKACDILAIDKSLTPVTLVLAEDGTIVDDDDYFLCLPSNTKFVALASNEKWAYNNSDGGTAWISQESFDVDETDSGAGLKWKNVARELKEDLSSIILLSEEDLQMLVDAPCSDLAQELRQSCATVQRLQHTLQQVLDQREEVRQSKQLLQLYLQALEKEGSLLSKQEESKAAFGEEVDAVDTGMSRETSSDVALASHILTALREKQAPELSLSSQDLELVTKEDPKALAVALNWDIKKTETVQEACERELALRLQQTQSLHSLRSISASKASPPGDLQNPKRARQDPT
notes: Native protein, purified from HeLa S-100 as part of the DFF heterodimer, or endogenous in 293 and U937 cell extracts; also called 45-kDa polypeptide; endogenous protein
binding result [6]: binds
